Measured values: article PMC8262869, “The DnaK/DnaJ Chaperone System Enables RNA Polymerase-DksA Complex Formation in Salmonella Experiencing Oxidative Stress” (mBio, 2021)

B1: oxidized GST-DksA (natural protein)
chain: MQEGQNRKTSSLSILAIAGVEPYQEKPGEEYMNEAQLSHFKRILEAWRNQLRDEVDRTVTHMQDEAANFPDPVDRAAQEEEFSLELRNRDRERKLIKKIEKTLKKVEDEDFGYCESCGVEIGIRRLEARPTADLCIDCKTLAEIREKQMAG
modifications: cysteine residues oxidized (disulfide-bonded) by treatment with H2O2; positions not given
notes: DksA, Salmonella enterica serovar Typhimurium; dksA cloned into BamHI and XhoI sites of pGEX-6P-1; For the in vitro transcription assays the GST tag was removed with PreScission protease and oxidation was with 1 mM H2O2; also called oxidized DksA; source: E. coli BL21(DE3), purified (glutathione-Sepharose 4B); treated with 100 μM H2O2 for 1 h at 37°C
B2: DnaJ-6×His (natural protein, Salmonella enterica serovar Typhimurium, UniProt P0A1G7 1-379, looked up)
chain: MAKRDYYEILGVSKTAEEREIKKAYKRLAMKYHPDRNQGDKEAEAKFKEIKEAYEVLTDAQKRAAYDQYGHAAFEQGGMGGGFGGGFNGGADFSDIFGDVFGDIFGGGRGRQRAARGADLRYNMDLTLEEAVRGVTKEIRIPTLEECDVCHGSGAKAGTQPQTCPTCHGSGQVQMRQGFFAVQQTCPHCQGRGTLIKDPCHKCHGHGRVEKSKTLSVKIPAGVDTGDRIRLAGEGEAGEHGAPAGDLYVQVQVKQHPIFEREGNNLYCEVPINFAMAALGGEIEVPTLDGRVMLKVPSETQTGKLFRMRGKGVKSVRGGAQGDLLCRVVVETPVGLSEKQKQLLKDLQESFGGPTGEKNSPRSKSFFDGVKKFFDDLTR
notes: DnaJ, Salmonella enterica serovar Typhimurium; full-length dnaJ in NdeI and XhoI sites of pET-22b(+); also called wild-type DnaJ protein; C-terminally 6×His-tagged DnaJ; not shown: 6×His, C-terminal, kept
B3: GST-DnaK (natural protein)
chain: not shown
notes: DnaK (Hsp70), Salmonella enterica serovar Typhimurium; dnaK cloned into BamHI and XhoI sites of pGEX-6P-1; source: E. coli BL21(DE3), purified (glutathione-Sepharose 4B)

Legend:
[1] = target: T1, DnaJ H33Q-6×His (Salmonella enterica serovar Typhimurium, UniProt P0A1G7 1-379, H33Q); assay: pull-down; GST fusion (bait) on glutathione-Sepharose 4B beads, 50 mM Tris-HCl pH 7.5, 4°C, 2 h with C-terminally 6×His-tagged prey; wash 50 mM NaCl, elution 500 mM NaCl; anti-6×His immunoblot; conditions: both partners purified
T1 construct: DnaJ, Salmonella enterica serovar Typhimurium; point mutant of full-length dnaJ in pET-22b(+); also called DnaJ H33Q recombinant variant; not shown: 6×His, C-terminal, kept

[2] = target: T2, DnaJ C186H-6×His (Salmonella enterica serovar Typhimurium, UniProt P0A1G7 1-379, C186H); assay: as above; conditions: both partners purified
T2 construct: DnaJ, Salmonella enterica serovar Typhimurium; point mutant of full-length dnaJ in pET-22b(+); not shown: 6×His, C-terminal, kept

[3] = target: T3, DnaJ ΔZn1-6×His (Salmonella enterica serovar Typhimurium, UniProt P0A1G7 1-379, C147S | C150S | C200S | C203S); assay: as above; conditions: both partners purified
T3 construct: DnaJ, Salmonella enterica serovar Typhimurium; also called C147S C150S C200S C203S; not shown: 6×His, C-terminal, kept

[4] = target: T4, DnaJ C268A-6×His (Salmonella enterica serovar Typhimurium, UniProt P0A1G7 1-379, C268A); assay: as above; conditions: both partners purified
T4 construct: DnaJ, Salmonella enterica serovar Typhimurium; point mutant of full-length dnaJ in pET-22b(+); not shown: 6×His, C-terminal, kept

[5] = target: E. coli holoenzyme RNA polymerase (E. coli, UniProt P0A7Z4 1-329; P0A8V2 1-1342); assay: cell-based or functional assay
[6] = target: B3; assay: pull-down; GST fusion (bait) on glutathione-Sepharose 4B beads, 50 mM Tris-HCl pH 7.5, 4°C, 2 h with C-terminally 6×His-tagged prey; wash 50 mM NaCl, elution 500 mM NaCl; anti-6×His immunoblot; conditions: both partners purified
[7] = target: T5, GST-DnaK T199A (Salmonella enterica serovar Typhimurium, UniProt Q56073 1-638, T199A); assay: as above; conditions: both partners purified
T5 construct: DnaK (Hsp70), Salmonella enterica serovar Typhimurium; point mutant of dnaK in pGEX-6P-1; also called recombinant DnaK T199A variant; source: E. coli BL21(DE3), purified (glutathione-Sepharose 4B)

Row | Binder | binding result [1] | binding result [2] | binding result [3] | binding result [4] | livJ in vitro transcription (qRT-PCR): 5 μM oxidized DksA (GST tag removed), 5 nM RNA polymerase, 50 nM DnaJ, upon addition of 500 nM untagged DnaK [5] | binding result [6] | binding result [7]
1 | B1 | binds | binds | binds | binds | > 10 fold | – | –
2 | B2 | – | – | – | – | – | binds | binds
3 | B3 | binds | – | – | – | – | – | –
